Laboratory results taken from patent US20200405868A1 (ADEPTHERA, published 2020).
One block for each binder: values may come before it. Where no end group is shown, it is not given here. The star is where a group is joined. Palmitoyl = CCCCCCCCCCCCCCCC(=O)*

Assays:
[1] = target: T1, PTH receptor 1 (PTHR1) (UniProt Q03431 27-593, limits assumed); assay: cell-based or functional assay
T1 sequence (looked up): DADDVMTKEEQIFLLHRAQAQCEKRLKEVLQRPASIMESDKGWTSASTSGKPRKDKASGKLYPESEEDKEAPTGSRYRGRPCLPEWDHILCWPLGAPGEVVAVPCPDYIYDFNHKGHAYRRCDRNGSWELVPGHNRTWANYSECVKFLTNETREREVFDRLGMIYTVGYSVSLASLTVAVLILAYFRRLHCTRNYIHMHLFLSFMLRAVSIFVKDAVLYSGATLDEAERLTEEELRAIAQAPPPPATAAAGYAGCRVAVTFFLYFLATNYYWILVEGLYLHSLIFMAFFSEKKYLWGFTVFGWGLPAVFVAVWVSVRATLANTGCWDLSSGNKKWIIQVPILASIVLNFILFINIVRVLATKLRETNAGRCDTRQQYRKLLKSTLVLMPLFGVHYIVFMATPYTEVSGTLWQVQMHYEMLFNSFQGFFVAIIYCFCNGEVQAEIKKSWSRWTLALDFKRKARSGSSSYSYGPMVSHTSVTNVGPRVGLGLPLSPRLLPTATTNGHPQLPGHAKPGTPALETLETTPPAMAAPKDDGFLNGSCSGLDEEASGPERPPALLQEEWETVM

[2] = target: melanocortin receptor 1 (MC1R) (UniProt Q01726 1-317, limits assumed); assay: cell-based or functional assay
melanocortin receptor 1 (MC1R), sequence (Q01726 whole entry): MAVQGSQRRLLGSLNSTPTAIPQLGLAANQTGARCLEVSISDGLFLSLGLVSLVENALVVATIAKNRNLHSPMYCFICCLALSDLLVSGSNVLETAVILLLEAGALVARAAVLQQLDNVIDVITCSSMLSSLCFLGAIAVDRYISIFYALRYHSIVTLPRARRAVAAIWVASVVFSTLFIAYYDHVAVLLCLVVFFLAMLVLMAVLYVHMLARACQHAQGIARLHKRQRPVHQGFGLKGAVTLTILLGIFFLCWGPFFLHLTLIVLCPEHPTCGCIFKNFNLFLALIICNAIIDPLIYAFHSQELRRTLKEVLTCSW

- EC50 (nM), PTHR1 cAMP agonistic assay [1]: 14.1 nM
B1: SEQ ID NO: 232, Pal-HSYSEIQLMHNLGKHLNSMERVEWLRKKLQDVHNF, gel-forming PTH analog (peptide)
peptide: Palmitoyl-HSYSEIQLMHNLGKHLNSMERVEWLRKKLQDVHNF

- EC50 (nM), MC1R cAMP agonistic assay [2]: 0.14 nM
B2: SEQ ID NO: 226, Pal-HSYSMEHFRWGKPVGKKRRPVKVYP, conjugated gel-forming ACTH1-24 analog (peptide)
peptide: Palmitoyl-HSYSMEHFRWGKPVGKKRRPVKVYP
